In paper PMC5058748, “ZNF224, Krüppel like zinc finger protein, induces cell growth and apoptosis-resistance by down-regulation of p21 and p53 via miR-663a”:

target: FLAG-ZNF224 (UniProt Q9NZL3 1-707); experiment: SPR; protein immobilized, oligo as analyte; SPR: 1x PBS, Reichert SR7500DC, CMDH chip, oligo 0-10 uM; pH and temperature not stated; ELISA buffer not in material; conditions: protein: recombinant; tags: 3xFLAG; label: 5'-biotin (ELISA oligos); hairpin
Sequence (Q9NZL3 whole entry): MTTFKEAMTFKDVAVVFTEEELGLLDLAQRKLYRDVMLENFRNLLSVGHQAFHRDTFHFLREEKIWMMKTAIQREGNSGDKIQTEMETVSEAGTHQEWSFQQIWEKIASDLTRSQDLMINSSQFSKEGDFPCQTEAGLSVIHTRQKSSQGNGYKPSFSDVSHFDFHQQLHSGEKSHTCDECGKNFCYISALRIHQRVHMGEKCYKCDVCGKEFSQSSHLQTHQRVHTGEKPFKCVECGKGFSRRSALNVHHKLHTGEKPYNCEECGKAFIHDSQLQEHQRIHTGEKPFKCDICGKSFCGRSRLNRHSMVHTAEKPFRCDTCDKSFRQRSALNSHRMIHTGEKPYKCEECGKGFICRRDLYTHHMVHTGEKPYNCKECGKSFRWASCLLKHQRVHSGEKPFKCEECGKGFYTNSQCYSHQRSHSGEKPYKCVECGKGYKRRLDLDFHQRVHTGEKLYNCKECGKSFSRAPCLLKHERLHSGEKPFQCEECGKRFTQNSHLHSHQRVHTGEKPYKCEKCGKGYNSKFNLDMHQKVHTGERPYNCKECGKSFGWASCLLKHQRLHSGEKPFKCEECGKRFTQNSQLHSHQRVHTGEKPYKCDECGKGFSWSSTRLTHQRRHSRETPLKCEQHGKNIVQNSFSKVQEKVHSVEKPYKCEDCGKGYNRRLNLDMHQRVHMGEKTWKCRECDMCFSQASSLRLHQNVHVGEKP

| Binder | Kd |
| --- | --- |
| CAGCTTC hairpin oligo (dsDNA) DNA 1: CCAAGAAGCTGAAAGGGAAAAACCCTTTCAGCTTCTTGG DNA 2: CCAAGAAGCTGAAAGGGTTTTTCCCTTTCAGCTTCTTGG | 1.25 ± 0.06 µM |
| CAGCGTC hairpin oligo (dsDNA) DNA 1: CCAAGACGCTGAAAGGGAAAAACCCTTTCAGCGTCTTGG DNA 2: CCAAGACGCTGAAAGGGTTTTTCCCTTTCAGCGTCTTGG | 2 ± 0.1 µM |
| GCAGCAA hairpin oligo (dsDNA) DNA 1: CCAAGCAGCAAAAAGGGAAAAACCCTTTTTGCTGCTTGG DNA 2: CCAAGCAGCAAAAAGGGTTTTTCCCTTTTTGCTGCTTGG | 0.42 ± 0.03 µM |
